Here are results for two molecules from patent US11826422B2, “Methods and compositions for adaptive immune modulation” (THE BOARD OF REGENTS OF THE UNIVERSITY OF TEXAS SYSTEM, priority 2016, dated 2023).

The conditions of series [1]: cited from earlier work.
A further series deals with IgG1. In words: Serum total IgG1 by sandwich ELISA, OVA model. It is filed as in vivo, mouse. To be noted: FIG. 2; aerosol 6×, Groups 4 and 6; mean±SEM. On the procedure:
(§1) Female BALB/c mice (6-10 weeks of age) were purchased from Charles River, Wilmington, Mass., and housed five mice per cage in a 12/12 h light/dark cycle with food and water available ad libitum. All experimental procedures were approved by the institutional animal ethics committee (IAUCUC) at the Institute of Biosciences and Technology, Texas A&M HSC.
(§2) Synthetic TLR ligands (referred to as O/P) were purchased from InvivoGen (San Diego, Calif.), reconstituted in endotoxin-free water, and suspended in 8 ml sterile PBS at the following concentrations: Pam2 10 μg/ml; ODN2395 20 μg/ml. Mice were sensitized to ovalbumin (OVA) ([…], Grade V, 2.25 mg alum in saline, pH7.4; Sigma, St. Louis, Mo.) administered by intraperitoneal (IP) injection once weekly for one or two weeks. Sensitized mice were exposed for 30 min to an aerosol of 2.5% (wt/vol) ovalbumin in 0.9% saline, via Aerotech II nebulizer (CIS US, Inc.) combined with or without O/P in the presence of room air supplemented with 5% CO2 to promote maximal ventilation and homogeneous aerosol exposure throughout the lungs.
(§3) Serum immunoglobulin concentrations were determined by standard sandwich ELISA technique using 96 well Easywash high binding flat bottom plates (Corning). […] Reactions were stopped by addition of 2N H2SO4 and absorbance read at 450 nm. All readings used in the data fell within the linear portion of the standard curves. […]

The subject of another series is eosinophils (EOS) in BAL. In words: BAL total and differential cell counts (Wright-Giemsa), OVA model. It is filed as in vivo, mouse. To be noted: FIG. 3B; sensitization optimization, Group 8: two IP OVA/alum, aerosol two times/week. The protocol:
as §2
BAL was obtained by instilling and withdrawing two, 1 ml aliquots of PBS via trachea cannula (luer stub adapter, BD Biosciences). Total leukocyte count was determined with a hemocytometer (Houser Scientific, Horsham, Pa.), and slides for differential cell count were prepared by cytospin of 300 μl of BAL fluid at 500×g for 5 min, followed by Wright-Giemsa staining.

The test system of the next series is OVA-specific IgE. The series can be described thus: Serum OVA-specific IgE by sandwich ELISA, OVA sensitization and aerosol challenge mouse model. It is filed as in vivo. To be noted: mean±SEM. On the procedure:
as §1, §2, §3
For orientation: ELISA stands for enzyme-linked immunosorbent assay.

The test system of the next series is total IgE. In words: Serum total IgE by sandwich ELISA, OVA sensitization and aerosol challenge mouse model. To be noted: mean±SEM. The arrangement: unit not given here. Format: in vivo. On the procedure:
as §1, §2
Serum immunoglobulin concentrations were determined by standard sandwich ELISA technique using 96 well Easywash high binding flat bottom plates (Corning). All reagents were diluted in assay diluent (TBS+0.1% BSA [Calbiochem]) except for the coating reagent, which was diluted in TBS only. All wells were washed with wash buffer (TBS+0.1% Tween-20) 3×s, 5 minutes per wash, and all samples developed by adding TMB Substrate Reagent (BD Biosciences) for 30 minutes in the dark. Reactions were stopped by addition of 2N H2SO4 and absorbance read at 450 nm. All readings used in the data fell within the linear portion of the standard curves.
The same protocol was followed for determining total IgE using the following amounts of reagents: 2 μg/mL goat anti-mouse IgE (AbD Serotec, STAR166), 2 μg/mL Biotin Rat Anti-Mouse IgE (BD Biosciences, clone R35-118). For OVA IgG1, the following amounts of reagents were used: 100 μg/mL OVA (Sigma) and 0.1 μg/mL Biotin Rat Anti-Mouse IgG1 (eBioscience, clone M1-14D12). For total IgG1: 2 μg/mL Rat Anti-Mouse IgG1 (BioLegend, clone RMG1-1), 0.05 μg/mL Biotin Rat Anti-Mouse IgG1 (eBioscience, clone M1-14D12). For IgG2a: 2 μg/mL Rat Anti-Mouse IgG2a (BioLegend, clone RMG2a-62) and 0.05 μg/mL Biotin Goat Anti-Mouse IgG2a (AbD Serotec, 108008). For total IgG: 2 μg/mL Goat Anti-Mouse IgG (AbD Serotec, 103001) and 0.025 μg/mL Biotin Sheep Anti-Mouse IgG (AbD Serotec, AAC10B).

A further series deals with IgG2a. In words: Serum IgG2a by sandwich ELISA, OVA model. The note with it: FIG. 2; aerosol 6×, Group 6; mean±SEM. It is filed as in vivo, mouse. On the procedure:
as §1, §2, §3

Take `CCC(=O)O[C@]1(C(=O)SCF)[C@H](C)C[C@H]2[C@@H]3C[C@H](F)C4=CC(=O)C=C[C@]4(C)[C@@]3(F)[C@@H](O)C[C@@]21C` [Fluticasone propionate, S-(fluromethyl)6α,9-difluoro-11β-17-dihydroxy-16α-methyl-3-oxoandrosta-1,4-diene-17β-carbothioate,17-propionate]: the “solubility in dimethyl sulfoxide and dimethylformamide” value in series [1] (dimethyl sulfoxide, dimethylformamide) was “freely soluble”. The “solubility in methanol and 95% ethanol” value in series [1] (methanol, 95% ethanol) was “slightly soluble”. For the same molecule, the solubility in water entry in series [1] (water) is on record as “practically insoluble”.

B1: ovalbumin (protein, UniProt P01012 2-386, looked up)
Ovalbumin: GSIGAASMEFCFDVFKELKVHHANENIFYCPIAIMSALAMVYLGAKDSTRTQINKVVRFDKLPGFGDSIEAQCGTSVNVHSSLRDILNQITKPNDVYSFSLASRLYAEERYPILPEYLQCVKELYRGGLEPINFQTAADQARELINSWVESQTNGIIRNVLQPSSVDSQTAMVLVNAIVFKGLWEKAFKDEDTQAMPFRVTEQESKPVQMMYQIGLFRVASMASEKMKILELPFASGTMSMLVLLPDEVSGLEQLESIINFEKLTEWTSSNVMEERKIKVYLPRMKMEEKYNLTSVLMAMGITDVFSSSANLSGISSAESLKISQAVHAAHAEINEAGREVVGSAEAGVDAASVSEEFRADHPFLFCIKHIATNAVLFFGRCVSP
notes: model antigen/allergen, Grade V, Sigma
On to B1, for which the IgG1 levels in the series with IgG1 is given as 6.01±0.66. Besides, the “eosinophils (EOS) in BAL” value in the series on eosinophils (EOS) in BAL is on record as “elevated compared to all other groups”. In addition, the “OVA-specific IgE” value in the series on OVA-specific IgE (FIG. 1C, serum, day 21, aerosol 6×, Groups 4 and 6) is 4.36±0.82. Also, the OVA-IgE with OVA-specific IgE (FIG. 6 second panel, aerosol schedule of FIG. 5A, Groups 2 and 3) is reported as 3.77±1.00. Moreover, the “total IgE” value in the series with total IgE (FIG. 1B, serum, day 21, aerosol 6× (three times/week for 2 weeks from second immunization), Groups 4 and 6) turned out to be 17.23±1.82; in the series with total IgE (FIG. 4, sensitization optimization, Group 5: one IP OVA/alum, OVA aerosol two times/week), 5.36±1.70; with total IgE (FIG. 4, sensitization optimization, Group 8: two IP OVA/alum, OVA aerosol two times/week), 11.05±2.39; in the series on total IgE (FIG. 6 top panel, two OVA immunizations, aerosol schedule of FIG. 5A, Groups 2 and 3), 24.66±8.23. For the same molecule, the IgG2a levels in the series with IgG2a is recorded as 25±3.
